Test results: the supplement of paper PMC10065799, “High-throughput profiling of sequence recognition by tyrosine kinases and SH2 domains using bacterial peptide display” (eLife, 2023)

test system: c-Src; experiment: phosphorylation enrichment, bacterial display (enrichment ratio); higher = better substrate or ligand; peptides without Tyr show the background
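Throughout, for SH2 binding enrichment of the phosphorylated peptide, bacterial display: peptide library displayed on the E. coli surface as eCPX fusions, selected cells deep-sequenced, score is each peptide's frequency after selection divided by its frequency in the input.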
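Throughout, for phosphorylation enrichment, bacterial display: 11-residue human phosphosite peptides and single-mutation variants displayed on the E. coli surface, counted by deep sequencing, each peptide's frequency after selection divided by its frequency in the unselected input library; frequency after pTyr selection over input frequency; kinase dosed for 20-30% of maximal phosphorylation in three min.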

Row | Sequence | phosphorylation enrichment
1 | HRTLVYGGIFL [FBP1_Y259] | 3.83
2 | AGADGYDYLAP [FOXL2_Y186_G187D] | 0.388
3 | YGSSSSGGAGG [RPA2_Y14_Y14S] | 0.337
4 | QTWKTYVRQQQ [SFI1_Y164] | 0.37
5 | DALDNYVVRGV [PCCA_Y473_I475V] | 0.436
6 | GFAIVYGTIIL [GPR179_Y460] | 0.462
7 | IYRAAYFGVYD [SLC25A4_Y191] | 4.49
8 | CTTSHYNFMCN [TP53_Y234_I232S_YF] | 0.48
9 | LEAVSYSSRFA [RNLS_Y190_YF] | 0.435
10 | FAKTQYPDVYA [CRX_Y63] | 0.486
11 | MSRDVYSTDYY [NTRK2_Y702] | 3.88
12 | QAYSWYQHQRA [NDST1_Y714_R709Q] | 0.642
13 | DGTESYLTVSS [PLK1_Y462] | 0.465
14 | IIWDSYTTNKM [GNB4_Y85] | 0.321
15 | PMDTYYDSTRG [DYNC2H1_Y2231] | 1.91
16 | QSLEPYTKQQL [STAT3_Y640_V637L] | 0.309
17 | DRLASYLDKVP [KRT14_Y129_R134P] | 0.493
18 | TTSQPYRRLCS [USH2A_Y534_C536R] | 0.356
19 | NSFKFYMSDDI [ATRX_Y204_C200S_YF] | 0.574
20 | NGSKGYAFVHF [PABPC5_Y147_YF] | 0.407
21 | APTSGYQEFVH [IL4R_Y575] | 0.419
22 | RQQQDYWLKDV [ANPEP_Y600_I603K] | 0.564
23 | LVRPPYSYLAL [FOXI1_Y126_S129L] | 0.498
24 | NTTIHYNYMCN [TP53_Y234_C229N] | 0.496
25 | ESDFTYSSSFE [SRPK2_Y427_YF] | 1.08
26 | GISDEYHVIRR [GCDH_Y398_H403R] | 0.621
27 | QMEKICTQQIQ [CCNB1IP1_Y125_Y125C] | 0.573
28 | RFLRGYRQYAY [HLA-A_Y137_D140Y] | 1.56
29 | DLVRPYVHKIL [SF3B1_Y570] | 0.43

molecular target: Grb2 SH2 (UniProt P62993); experiment: SH2 binding enrichment of the phosphorylated peptide, bacterial display (enrichment ratio); higher = better substrate or ligand; peptides without Tyr show the background
Sequence (P62993 whole entry, looked up): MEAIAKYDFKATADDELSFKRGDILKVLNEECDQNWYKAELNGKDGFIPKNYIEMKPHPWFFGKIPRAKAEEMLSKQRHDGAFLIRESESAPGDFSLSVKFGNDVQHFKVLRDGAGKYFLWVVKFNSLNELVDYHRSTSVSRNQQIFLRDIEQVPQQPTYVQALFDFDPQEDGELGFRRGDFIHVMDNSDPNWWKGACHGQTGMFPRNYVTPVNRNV

Row | Sequence | SH2 binding enrichment
30 | HRTLVYGGIFL [FBP1_Y259] | 0.747
31 | AGADGYDYLAP [FOXL2_Y186_G187D] | 0.89
32 | YGSSSSGGAGG [RPA2_Y14_Y14S] | 0.711
33 | QTWKTYVRQQQ [SFI1_Y164] | 0.95
34 | DALDNYVVRGV [PCCA_Y473_I475V] | 0.732
35 | GFAIVYGTIIL [GPR179_Y460] | 0.604
36 | IYRAAYFGVYD [SLC25A4_Y191] | 0.92
37 | CTTSHYNFMCN [TP53_Y234_I232S_YF] | 1.14
38 | LEAVSYSSRFA [RNLS_Y190_YF] | 0.777
39 | FAKTQYPDVYA [CRX_Y63] | 0.963
40 | MSRDVYSTDYY [NTRK2_Y702] | 1.2
41 | QAYSWYQHQRA [NDST1_Y714_R709Q] | 1.23
42 | DGTESYLTVSS [PLK1_Y462] | 0.628
43 | IIWDSYTTNKM [GNB4_Y85] | 0.941
44 | PMDTYYDSTRG [DYNC2H1_Y2231] | 0.666
45 | QSLEPYTKQQL [STAT3_Y640_V637L] | 0.679
46 | DRLASYLDKVP [KRT14_Y129_R134P] | 1.04
47 | TTSQPYRRLCS [USH2A_Y534_C536R] | 0.622
48 | NSFKFYMSDDI [ATRX_Y204_C200S_YF] | 0.982
49 | NGSKGYAFVHF [PABPC5_Y147_YF] | 1.09
50 | APTSGYQEFVH [IL4R_Y575] | 0.826
51 | RQQQDYWLKDV [ANPEP_Y600_I603K] | 1.01
52 | LVRPPYSYLAL [FOXI1_Y126_S129L] | 1.06
53 | NTTIHYNYMCN [TP53_Y234_C229N] | 0.931
54 | ESDFTYSSSFE [SRPK2_Y427_YF] | 0.735
55 | GISDEYHVIRR [GCDH_Y398_H403R] | 0.833
56 | QMEKICTQQIQ [CCNB1IP1_Y125_Y125C] | 0.834
57 | RFLRGYRQYAY [HLA-A_Y137_D140Y] | 0.92
58 | DLVRPYVHKIL [SF3B1_Y570] | 0.849

molecular target: SHP2-C SH2; experiment: as above

Row | Sequence | SH2 binding enrichment
59 | HRTLVYGGIFL [FBP1_Y259] | 0.493
60 | AGADGYDYLAP [FOXL2_Y186_G187D] | 0.478
61 | YGSSSSGGAGG [RPA2_Y14_Y14S] | 0.612
62 | QTWKTYVRQQQ [SFI1_Y164] | 0.96
63 | DALDNYVVRGV [PCCA_Y473_I475V] | 0.725
64 | GFAIVYGTIIL [GPR179_Y460] | 0.547
65 | IYRAAYFGVYD [SLC25A4_Y191] | 1.19
66 | CTTSHYNFMCN [TP53_Y234_I232S_YF] | 1.04
67 | LEAVSYSSRFA [RNLS_Y190_YF] | 0.793
68 | FAKTQYPDVYA [CRX_Y63] | 1
69 | MSRDVYSTDYY [NTRK2_Y702] | 0.735
70 | QAYSWYQHQRA [NDST1_Y714_R709Q] | 1.17
71 | DGTESYLTVSS [PLK1_Y462] | 0.713
72 | IIWDSYTTNKM [GNB4_Y85] | 0.886
73 | PMDTYYDSTRG [DYNC2H1_Y2231] | 0.44
74 | QSLEPYTKQQL [STAT3_Y640_V637L] | 0.558
75 | DRLASYLDKVP [KRT14_Y129_R134P] | 0.797
76 | TTSQPYRRLCS [USH2A_Y534_C536R] | 0.542
77 | NSFKFYMSDDI [ATRX_Y204_C200S_YF] | 0.79
78 | NGSKGYAFVHF [PABPC5_Y147_YF] | 25.9
79 | APTSGYQEFVH [IL4R_Y575] | 0.668
80 | RQQQDYWLKDV [ANPEP_Y600_I603K] | 0.635
81 | LVRPPYSYLAL [FOXI1_Y126_S129L] | 3.61
82 | NTTIHYNYMCN [TP53_Y234_C229N] | 0.848
83 | ESDFTYSSSFE [SRPK2_Y427_YF] | 0.747
84 | GISDEYHVIRR [GCDH_Y398_H403R] | 0.889
85 | QMEKICTQQIQ [CCNB1IP1_Y125_Y125C] | 0.558
86 | RFLRGYRQYAY [HLA-A_Y137_D140Y] | 0.602
87 | DLVRPYVHKIL [SF3B1_Y570] | 1.16

molecular target: c-Src SH2; experiment: as above

Row | Sequence | SH2 binding enrichment
88 | HRTLVYGGIFL [FBP1_Y259] | 0.358
89 | AGADGYDYLAP [FOXL2_Y186_G187D] | 4.34
90 | YGSSSSGGAGG [RPA2_Y14_Y14S] | 0.395
91 | QTWKTYVRQQQ [SFI1_Y164] | 0.756
92 | DALDNYVVRGV [PCCA_Y473_I475V] | 0.617
93 | GFAIVYGTIIL [GPR179_Y460] | 0.364
94 | IYRAAYFGVYD [SLC25A4_Y191] | 2.12
95 | CTTSHYNFMCN [TP53_Y234_I232S_YF] | 4.04
96 | LEAVSYSSRFA [RNLS_Y190_YF] | 0.486
97 | FAKTQYPDVYA [CRX_Y63] | 0.418
98 | MSRDVYSTDYY [NTRK2_Y702] | 0.715
99 | QAYSWYQHQRA [NDST1_Y714_R709Q] | 1.08
100 | DGTESYLTVSS [PLK1_Y462] | 0.475
101 | IIWDSYTTNKM [GNB4_Y85] | 0.438
102 | PMDTYYDSTRG [DYNC2H1_Y2231] | 0.742
103 | QSLEPYTKQQL [STAT3_Y640_V637L] | 0.388
104 | DRLASYLDKVP [KRT14_Y129_R134P] | 0.521
105 | TTSQPYRRLCS [USH2A_Y534_C536R] | 0.581
106 | NSFKFYMSDDI [ATRX_Y204_C200S_YF] | 0.604
107 | NGSKGYAFVHF [PABPC5_Y147_YF] | 3.1
108 | APTSGYQEFVH [IL4R_Y575] | 2.99
109 | RQQQDYWLKDV [ANPEP_Y600_I603K] | 0.675
110 | LVRPPYSYLAL [FOXI1_Y126_S129L] | 3.64
111 | NTTIHYNYMCN [TP53_Y234_C229N] | 2.42
112 | ESDFTYSSSFE [SRPK2_Y427_YF] | 0.572
113 | GISDEYHVIRR [GCDH_Y398_H403R] | 0.835
114 | QMEKICTQQIQ [CCNB1IP1_Y125_Y125C] | 0.486
115 | RFLRGYRQYAY [HLA-A_Y137_D140Y] | 0.322
116 | DLVRPYVHKIL [SF3B1_Y570] | 0.679
